The values that follow come from PMC2884070.

In this test the target is GST-CypA (cyclophilin A) (human) (UniProt P62937). The test can be described thus: radioligand binding.

One may read the Kd as the free concentration of one partner at which half of the binding sites on the other are occupied at equilibrium, for simple one-to-one binding. Higher therefore signals a looser complex.

Sequence of GST-CypA (cyclophilin A) (human) (P62937 whole entry): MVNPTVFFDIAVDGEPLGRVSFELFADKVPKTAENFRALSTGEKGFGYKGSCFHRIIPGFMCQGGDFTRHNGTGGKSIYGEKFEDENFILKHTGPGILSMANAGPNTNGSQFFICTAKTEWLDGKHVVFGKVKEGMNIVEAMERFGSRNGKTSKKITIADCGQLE

The substance “NS5A Con1 D320E-His (full length) (natural protein)” showed an equilibrium dissociation constant (Kd) of 124 µM.
With “full-length NS5A MD2b-1-His (genotype 2b) (natural protein)” the figure was 112 µM.
